The labels stand for the following.
B1: human B7-1Fc fusion protein (Fc fusion, UniProt P33681 35-242, looked up, not shown: a dimerising Fc or GST)
chain: VIHVTKEVKEVATLSCGHNVSVEELAQTRIYWQKEKKMVLTMMSGDMNIWPEYKNRTIFDITNNLSIVILALRPSDEGTYECVVLKYEKDAFKREHLAEVTLSVKADFPTPSISDFEIPTSNIRRIICSTSGGFPEPHLSWLENGEELNAINTTVSQDPETELYAVSSKLDFNMTTNHSFMCLIKYGHLRVNQTFNWNTTKQEHFPDN
notes: Used biotinylated in ELISA; also called B7-1 Ig; B7-1 Ig fusion protein

The target in one experiment is T1, human IgG1-Fc control (human, UniProt P01857-1 99-330 = IgG part, limits assumed).
T1 construct: domain: Fc; Negative control coated on plates; also called Control IgG1-Fc; hIg-Fc
Description: ELISA, summary grade. A general note: In an ELISA, binding on a coated surface is turned into a signal by an enzyme label.

Experiment [1] deals with T2, CTLA-4Fc mutant protein M6 (human (murine residues substituted)).
T2 construct: also called Mutant 6
Description: ELISA; binder 1000 ng/ml on coated target.

Experiment [2] deals with T3, CTLA-4Fc mutant protein M8 (human (murine residues substituted)).
T3 construct: also called Mutant 8
Kind of experiment: ELISA; binder 1000 ng/ml on coated target.

In experiment [3] the target is T2, CTLA-4Fc mutant protein M6. Kind of experiment: ELISA; binder 10 ng/ml on coated target.
Experiment [4] concerns the target B1. Kind of experiment: ELISA, summary grade.

On to B1, for which, in the experiment with human IgG1-Fc control, the binding result is given as “no binding”. Moreover, the OD450 in experiment [1] stood at 3.41 OD450; in experiment [2], 3.63 OD450; in experiment [3], 0.279 OD450.

B2: CTLA-4Fc mutant protein M16 (Fc fusion)
chain: IQVTQPSVVLASSRGIASFVCEYASPGKATEVRVTVLRQADSQVTEVCAATFTEKNTVGFLDDSICTGTFNESRVNLTIQGLRAMDTGLYICKVELMYPPPYFVGMGNGTQIYVIDPEPCPDSDQEPKSSDKTHTSPPSPAPELLGGSSVFLFPPKPKDTLYITREPEVTCVVVDVSHEDPEVKFNWYVDGVEVHNAKTKPREEQYNSTYRVVSVLTVLHQDWLNGKEYKCKVSNKALPAPIEKTISKAKGQPREPQVYTLPPSRDELTKNQVSLTCLVKGFYPSDIAVEWESNGQPENNYKTTPPVLDSDGSFFLYSKLTVDKSRWQQGNVFSCSVMHEALHNHYTQKSLSLSPGK
B2: the binding result in experiment [4] was “binds”.

B3: human B7-2Fc fusion protein (Fc fusion, UniProt P42081 24-245, looked up, not shown: a dimerising Fc or GST)
chain: APLKIQAYFNETADLPCQFANSQNQSLSELVVFWQDQENLVLNEVYLGKEKFDSVHSKYMGRTSFDSDSWTLRLHNLQIKDKGLYQCIIHHKKPTGMIRIHQMNSELSVLANFSQPEIVPISNITENVYINLTCSSIHGYPEPKKMSVLLRTKNSTIEYDGVMQKSQDNVTELYDVSISLSVSFPDVTSNMTIFCILETDKTRLLSSPFSIELEDPQPPPDH
notes: Used biotinylated in ELISA; also called hB7-2Fc; CD86
B3: the binding result with human IgG1-Fc control was “no binding”.
